Source: patent publication US20260274981A1 (VIB VZW, published 2026)

T1: cynomolgus TfR overexpressed on CHO cells (cynomolgus monkey, UniProt Q5RDH6 1-760 (Pongo abelii entry))
T1 construct: construct is TfR followed by an HA tag and IRES-GFP; also called cynomolgus monkey TfR1; NHP TfR
T1 chain: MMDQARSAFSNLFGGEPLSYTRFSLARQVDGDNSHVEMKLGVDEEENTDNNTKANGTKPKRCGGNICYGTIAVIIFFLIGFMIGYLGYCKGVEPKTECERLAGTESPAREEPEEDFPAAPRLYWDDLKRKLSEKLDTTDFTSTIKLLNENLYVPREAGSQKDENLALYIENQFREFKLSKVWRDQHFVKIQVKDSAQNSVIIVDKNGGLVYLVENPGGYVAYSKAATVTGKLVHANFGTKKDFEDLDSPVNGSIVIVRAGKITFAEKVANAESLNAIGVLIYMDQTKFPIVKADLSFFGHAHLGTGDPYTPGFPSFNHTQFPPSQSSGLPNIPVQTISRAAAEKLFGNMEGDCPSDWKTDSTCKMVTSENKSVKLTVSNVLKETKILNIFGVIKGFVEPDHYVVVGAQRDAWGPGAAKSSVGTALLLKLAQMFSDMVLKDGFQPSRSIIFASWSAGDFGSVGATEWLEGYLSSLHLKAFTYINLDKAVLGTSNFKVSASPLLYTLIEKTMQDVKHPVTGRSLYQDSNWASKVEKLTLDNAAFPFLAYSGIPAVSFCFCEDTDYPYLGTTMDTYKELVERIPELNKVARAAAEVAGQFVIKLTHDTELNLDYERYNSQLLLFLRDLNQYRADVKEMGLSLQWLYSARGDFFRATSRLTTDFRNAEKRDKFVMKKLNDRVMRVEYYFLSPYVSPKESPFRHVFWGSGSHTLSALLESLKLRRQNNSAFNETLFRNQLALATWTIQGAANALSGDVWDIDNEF


How the values were obtained:
[1] = molecular target: T2, human TfR overexpressed on CHO cells (human, UniProt P02786 1-760); experiment: flow cytometry, first of two columns 'Binding to human TfR1 EC50 (M)' (second column: ND); paragraph 156 calls it the capacity to compete for binding on human TfR1, competitor not named
T2 construct: construct is TfR followed by an HA tag and IRES-GFP; also called hTfR; human transferrin receptor

[2] = molecular target: T1, cynomolgus TfR overexpressed on CHO …; experiment: flow cytometry, first of two columns 'Binding to cyno TfR1 EC50 (M)' (second column: ND); paragraph 156 calls it the capacity to compete for binding on cynomolgus monkey TfR1, competitor not named
[3] = molecular target: T3, recombinant human TfR (2474-TR, R&D Systems), biotinylated (human, UniProt P02786 89-760, biotinylated with EZ-Link NHS-PEG4-Biotinylation Kit); experiment: SPR (Biacore), biotinylated human TfR captured on an SA chip, VHH injected, 1:1 dissociation fit, pH 7.4
T3 construct: Bought protein; also called immobilized recombinant human TfR; biotinylated human TfR
Method: (§1) E. coli TG1 bacteria were transformed with those plasmids and expressions induced. Crude extracts were prepared and analyzed for binding by flow cytometry on human TfR overexpressing cells. […] Next, off rates of these selected variants were determined on recombinant human TfR by surface plasmon resonance (Biacore, Marlborough, Massachusetts, United States). Biotinylated human TfR was captured on a streptavidin-coated SA sensor chip (Cytiva). Increasing concentrations of nanobodies were sequentially injected in a single cycle at a flow rate of 30 μL/min. The dissociation was monitored for around 20 min. A reference flow was used as a control for non-specific binding and refractive index changes. Several buffer blanks were used for double referencing. Off rates were derived after fitting the experimental data to the 1:1 binding model with the Biacore Evaluation Software.
(§2) Surface Plasmon Resonance (SPR) was used to measure the interaction between VHHs and human or cynomolgus TfR receptor. Human TfR (2474-TR, R&D Systems) and cynomolgus TfR (90253-C07H, Sino Biological) were biotinylated with the EZ-Link NHS-PEG4-Biotinylation Kit (ThermoFischer Scientific) according to the manufacturer instructions. The binding experiments were performed at 25° C. on a Biacore T200 instrument (Cytiva, Uppsala, Sweden) in HBS-EP+ buffer (10 mM HEPES, 150 mM NaCl, 3 mM EDTA and 0.05% v/v Surfactant P20). Biotinylated human TfR and cynomolgus TfR were captured on a SA sensor chip (Cytiva) at a density of around 250 RU. Increasing concentrations of VHHs were sequentially injected in one single cycle at a flow rate of 30 μl/min. The dissociation was monitored for 20 min. […] A reference flow was used as a control for non-specific binding and refractive index changes. Several buffer blanks were used for double referencing. Binding affinities (KD) and kinetic rate constants (kₒₙ, koff) were derived after fitting the experimental data to the 1:1 binding model with the Biacore T200 Evaluation Software 3.1 using the single cycle kinetic procedure.

[4] = molecular target: T3, recombinant human TfR (2474-TR, R&D …); experiment: SPR (Biacore), biotinylated human TfR captured on an SA chip, VHH injected, 1:1 dissociation fit, pH 5.5
Method: as §1, §2

[5] = molecular target: T3, recombinant human TfR (2474-TR, R&D …); experiment: SPR (Biacore), ratio of the off rates on human TfR at the two pH values; the printed number equals kd at pH 5.5 divided by kd at pH 7.4
Method: as §1, §2

[6] = molecular target: T2, human TfR overexpressed on CHO cells; experiment: flow cytometry, column 'Binding to human TfR1 EC50 (M)'; paragraph 156 calls it the capacity to compete for binding on human TfR1, competitor not named
[7] = molecular target: T1, cynomolgus TfR overexpressed on CHO …; experiment: flow cytometry, column 'Binding to cyno TfR1 EC50 (M)'; paragraph 156 calls it the capacity to compete for binding on cynomolgus monkey TfR1, competitor not named

T3 sequence (P02786 89-760 limits assumed): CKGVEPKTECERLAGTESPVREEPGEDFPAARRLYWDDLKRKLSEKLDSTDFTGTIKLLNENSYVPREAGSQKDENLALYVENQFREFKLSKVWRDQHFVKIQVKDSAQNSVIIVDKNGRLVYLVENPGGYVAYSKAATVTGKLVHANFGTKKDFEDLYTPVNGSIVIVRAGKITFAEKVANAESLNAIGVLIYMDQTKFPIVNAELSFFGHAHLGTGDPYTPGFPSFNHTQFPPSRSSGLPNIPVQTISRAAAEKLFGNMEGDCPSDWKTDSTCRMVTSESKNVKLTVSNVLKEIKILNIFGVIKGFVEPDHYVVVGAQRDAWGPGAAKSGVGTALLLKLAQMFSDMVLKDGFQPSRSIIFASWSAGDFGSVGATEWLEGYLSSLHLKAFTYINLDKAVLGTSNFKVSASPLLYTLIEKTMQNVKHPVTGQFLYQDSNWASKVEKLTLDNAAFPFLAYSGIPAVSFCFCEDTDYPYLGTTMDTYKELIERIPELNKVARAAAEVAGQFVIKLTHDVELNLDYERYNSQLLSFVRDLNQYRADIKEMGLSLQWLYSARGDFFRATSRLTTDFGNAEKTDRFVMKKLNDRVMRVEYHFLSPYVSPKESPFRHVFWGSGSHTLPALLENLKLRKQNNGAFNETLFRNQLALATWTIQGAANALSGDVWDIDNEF

| Binder | EC50 [1] [nM] | EC50 [2] [nM] | koff [3] [s⁻¹] | koff [4] [s⁻¹] | off-rate ratio kd pH5.5/kd pH7.4 [5] | EC50 [6] [nM] | EC50 [7] [nM] |
| --- | --- | --- | --- | --- | --- | --- | --- |
| BBB00533_h14 (VHH) VHH: EVQLVESGGGLVQPGGSLRLSCTASGRTFNYAMGWFRQAPGKNREFVATIDWKDGSSYYADSVKGRFTISRDDAKNTVYLQMNSLRPEDTAVYYCAVGEGDYCSTYTCAAEVEYDYWGQGTLVTVSS | 340 | 180 |  |  |  |  |  |
| BBB00738 (VHH, Histidine mutant) VHH: EVQLVESGGGLVQAGGSLRLSCAASGHIFSINAMGWYRQAPGKQRELVAVITSGGSTIYADSVKGRFTISRDNAENTVYLQMNSLRPEDTAVYYCNAHVGLKVPTIQELSLGFGSWGQGTLVTVSS |  |  | 0.00918 | 0.0171 | 1.86 |  |  |
| BBB00515_h1 (VHH) VHH: EVQLVESGGGLVQPGGSLRLSCAASGSIFSINAMGWYRQAPGKQRELVAVITSGGSTIYADSVKGRFTISRDNAENTVYLQMNSLRPEDTAVYYCNAHVGLKVPTIQELSLGFGSWGQGTLVTVSS |  |  |  |  |  | 120 | 26 |
| BBB00764 (VHH, Histidine mutant) VHH: EVQLVESGGGLVQAGGSLRLSCAASGSIFSINAMGWYRQAPGKQRELVAVITSGGSTIYADSVKGRFTISRDNAENTVYLQMNSLRPEDTAVYYCNAHVGLKVPTIHELSLGFGSWGQGTLVTVSS |  |  | 0.0102 | 0.0206 | 2.02 |  |  |
| BBB00770 (VHH, also called histidine mutant of BBB00533) VHH: EVQLVESGGGLVQAGGSLRLSCAASGSIFSINAMGWYRQAPGKQRELVAVITSGGSTIYADSVKGRFTISRDNAENTVYLQMNSLRPEDTAVYYCNAHVGLKVPTIQELSLGHGSWGQGTLVTVSS |  |  | 0.00727 | 0.0245 | 3.37 |  |  |
| BBB00739 (VHH, also called histidine mutant of BBB00533) VHH: EVQLVESGGGLVQAGGSLRLSCAASGSHFSINAMGWYRQAPGKQRELVAVITSGGSTIYADSVKGRFTISRDNAENTVYLQMNSLRPEDTAVYYCNAHVGLKVPTIQELSLGFGSWGQGTLVTVSS |  |  | 0.00761 | 0.0223 | 2.93 |  |  |
| BBB00771 (VHH, Histidine mutant) VHH: EVQLVESGGGLVQAGGSLRLSCAASGSIFSINAMGWYRQAPGKQRELVAVITSGGSTIYADSVKGRFTISRDNAENTVYLQMNSLRPEDTAVYYCNAHVGLKVPTIQELSLGFHSWGQGTLVTVSS |  |  | 0.011 | 0.0183 | 1.67 |  |  |
| BBB00767 (VHH, Histidine mutant) VHH: EVQLVESGGGLVQAGGSLRLSCAASGSIFSINAMGWYRQAPGKQRELVAVITSGGSTIYADSVKGRFTISRDNAENTVYLQMNSLRPEDTAVYYCNAHVGLKVPTIQELHLGFGSWGQGTLVTVSS |  |  | 0.00507 | 0.0113 | 2.23 |  |  |
| BBB00772 (VHH, Histidine mutant) VHH: EVQLVESGGGLVQAGGSLRLSCAASGSIFSINAMGWYRQAPGKQRELVAVITSGGSTIYADSVKGRFTISRDNAENTVYLQMNSLRPEDTAVYYCNAHVGLKVPTIQELSLGFGHWGQGTLVTVSS |  |  | 0.00737 | 0.0141 | 1.92 |  |  |
| BBB00758 (VHH, also called histidine mutant of BBB00533) VHH: EVQLVESGGGLVQAGGSLRLSCAASGSIFSINAMGWYRQAPGKQRELVAVITSGGSTIYADSVKGRFTISRDNAENTVYLQMNSLRPEDTAVYYCNAHVGHKVPTIQELSLGFGSWGQGTLVTVSS |  |  | 0.00908 | 0.0657 | 7.24 |  |  |
| BBB00740 (VHH, Histidine mutant) VHH: EVQLVESGGGLVQAGGSLRLSCAASGSIHSINAMGWYRQAPGKQRELVAVITSGGSTIYADSVKGRFTISRDNAENTVYLQMNSLRPEDTAVYYCNAHVGLKVPTIQELSLGFGSWGQGTLVTVSS |  |  | 0.00954 | 0.0221 | 2.32 |  |  |
| BBB00745 (VHH, Histidine mutant) VHH: EVQLVESGGGLVQAGGSLRLSCAASGSIFSINAHGWYRQAPGKQRELVAVITSGGSTIYADSVKGRFTISRDNAENTVYLQMNSLRPEDTAVYYCNAHVGLKVPTIQELSLGFGSWGQGTLVTVSS |  |  | 0.00773 | 0.0161 | 2.08 |  |  |
| BBB00515_h02 (VHH, The sheet prints E84K (IMGT) against BBB00515_h01; also called BBB00515_h2) VHH: EVQLVESGGGLVQPGGSLRLSCAASGSIFSINAMGWYRQAPGKQRELVAVITSGGSTIYADSVKGRFTISRDNAKNTVYLQMNSLRPEDTAVYYCNAHVGLKVPTIQELSLGFGSWGQGTLVTVSS |  |  |  |  |  | 67 | 23 |
| BBB00515_h04 (VHH, The sheet prints E1D and E84K (IMGT) against BBB00515_h01; also called BBB00515_h4) VHH: DVQLVESGGGLVQPGGSLRLSCAASGSIFSINAMGWYRQAPGKQRELVAVITSGGSTIYADSVKGRFTISRDNAKNTVYLQMNSLRPEDTAVYYCNAHVGLKVPTIQELSLGFGSWGQGTLVTVSS |  |  |  |  |  | 60 | 22 |
| BBB00763 (VHH, also called histidine mutant of BBB00533) VHH: EVQLVESGGGLVQAGGSLRLSCAASGSIFSINAMGWYRQAPGKQRELVAVITSGGSTIYADSVKGRFTISRDNAENTVYLQMNSLRPEDTAVYYCNAHVGLKVPTHQELSLGFGSWGQGTLVTVSS |  |  | 0.00933 | 0.022 | 2.36 |  |  |
| BBB00741 (VHH, also called histidine mutant of BBB00533) VHH: EVQLVESGGGLVQAGGSLRLSCAASGSIFHINAMGWYRQAPGKQRELVAVITSGGSTIYADSVKGRFTISRDNAENTVYLQMNSLRPEDTAVYYCNAHVGLKVPTIQELSLGFGSWGQGTLVTVSS |  |  | 0.00551 | 0.0151 | 2.74 |  |  |
| BBB00756 (VHH, also called histidine mutant of BBB00533) VHH: EVQLVESGGGLVQAGGSLRLSCAASGSIFSINAMGWYRQAPGKQRELVAVITSGGSTIYADSVKGRFTISRDNAENTVYLQMNSLRPEDTAVYYCNAHHGLKVPTIQELSLGFGSWGQGTLVTVSS |  |  | 0.00735 | 0.019 | 2.58 |  |  |
